Laboratory results as given in patent publication JP2018082720A (dated 2018).
Several values for one entry are separate records, joined by “and”; a condition that tells them apart may be missing. Equal values may be shown once.

Key:
human MMP9 [1] = target: T1, human MMP9 (human, UniProt P14780 20-707, limits assumed); test: SPR
T1 construct: also called ヒトMMP9; matrix metalloproteinase-9

human MMP9 [2] = target: T1, human MMP9; test: ELISA
cynomolgus monkey MMP9 = target: T2, cynomolgus monkey MMP9 (cynomolgus monkey, UniProt A0A2K5UU71 20-706); test: ELISA
T2 construct: also called カニクイザルMMP9; recombinant cynomolgus MMP9
T2 sequence (A0A2K5UU71 entry or part of it): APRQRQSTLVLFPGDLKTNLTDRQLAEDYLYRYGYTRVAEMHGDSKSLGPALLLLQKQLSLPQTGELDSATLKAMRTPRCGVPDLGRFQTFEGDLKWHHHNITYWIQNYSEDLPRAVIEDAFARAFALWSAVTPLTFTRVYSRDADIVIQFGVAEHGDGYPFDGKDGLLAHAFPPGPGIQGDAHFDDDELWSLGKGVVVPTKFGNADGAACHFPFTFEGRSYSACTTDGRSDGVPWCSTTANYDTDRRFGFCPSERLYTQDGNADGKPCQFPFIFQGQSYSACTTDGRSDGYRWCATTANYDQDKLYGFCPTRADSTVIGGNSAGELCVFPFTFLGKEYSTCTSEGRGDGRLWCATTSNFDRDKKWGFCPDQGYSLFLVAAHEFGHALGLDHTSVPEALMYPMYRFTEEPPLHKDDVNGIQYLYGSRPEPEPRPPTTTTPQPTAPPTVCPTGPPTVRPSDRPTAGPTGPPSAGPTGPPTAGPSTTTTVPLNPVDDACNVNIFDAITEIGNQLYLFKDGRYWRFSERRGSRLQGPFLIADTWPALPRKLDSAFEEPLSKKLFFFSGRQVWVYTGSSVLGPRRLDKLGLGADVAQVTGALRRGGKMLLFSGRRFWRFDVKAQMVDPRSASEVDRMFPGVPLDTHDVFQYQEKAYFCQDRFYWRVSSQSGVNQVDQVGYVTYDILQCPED

rat MMP9 = target: T3, rat MMP9 (rat, UniProt P50282 20-708, limits assumed); test: ELISA
T3 construct: also called ラットMMP9; recombinant rat MMP9
T3 sequence (P50282 20-708 limits assumed): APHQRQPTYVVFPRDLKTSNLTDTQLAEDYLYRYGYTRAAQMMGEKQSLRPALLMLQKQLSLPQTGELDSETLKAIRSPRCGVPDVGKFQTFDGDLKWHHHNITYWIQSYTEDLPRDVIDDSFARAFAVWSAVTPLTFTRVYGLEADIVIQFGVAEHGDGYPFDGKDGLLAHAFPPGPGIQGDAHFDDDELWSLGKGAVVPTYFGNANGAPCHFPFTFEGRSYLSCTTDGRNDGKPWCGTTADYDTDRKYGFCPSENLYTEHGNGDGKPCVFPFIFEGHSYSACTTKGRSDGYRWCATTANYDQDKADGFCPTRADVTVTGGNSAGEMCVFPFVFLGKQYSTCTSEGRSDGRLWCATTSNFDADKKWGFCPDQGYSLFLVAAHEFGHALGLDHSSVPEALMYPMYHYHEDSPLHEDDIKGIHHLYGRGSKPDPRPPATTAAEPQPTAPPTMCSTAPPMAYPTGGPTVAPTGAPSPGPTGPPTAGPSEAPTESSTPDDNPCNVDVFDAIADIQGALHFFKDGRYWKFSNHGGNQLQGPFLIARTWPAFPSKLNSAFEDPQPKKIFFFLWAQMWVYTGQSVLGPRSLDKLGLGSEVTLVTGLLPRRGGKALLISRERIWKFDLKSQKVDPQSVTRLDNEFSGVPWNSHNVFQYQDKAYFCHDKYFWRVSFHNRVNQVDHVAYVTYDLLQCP

human MMP9 [3] = target: T1, human MMP9; test: cell-based or functional assay
human MMP9 [4] = target: T1, human MMP9; test: direct binding assay and SPR
mouse MMP9 [5] = target: T4, mouse MMP9 (mouse, UniProt P41245 20-730, limits assumed); test: ELISA
T4 construct: The immunogen for AB0046 was a pro/catalytic domain fragment of mouse MMP9; also called マウスMMP9
T4 sequence (P41245 20-730 limits assumed): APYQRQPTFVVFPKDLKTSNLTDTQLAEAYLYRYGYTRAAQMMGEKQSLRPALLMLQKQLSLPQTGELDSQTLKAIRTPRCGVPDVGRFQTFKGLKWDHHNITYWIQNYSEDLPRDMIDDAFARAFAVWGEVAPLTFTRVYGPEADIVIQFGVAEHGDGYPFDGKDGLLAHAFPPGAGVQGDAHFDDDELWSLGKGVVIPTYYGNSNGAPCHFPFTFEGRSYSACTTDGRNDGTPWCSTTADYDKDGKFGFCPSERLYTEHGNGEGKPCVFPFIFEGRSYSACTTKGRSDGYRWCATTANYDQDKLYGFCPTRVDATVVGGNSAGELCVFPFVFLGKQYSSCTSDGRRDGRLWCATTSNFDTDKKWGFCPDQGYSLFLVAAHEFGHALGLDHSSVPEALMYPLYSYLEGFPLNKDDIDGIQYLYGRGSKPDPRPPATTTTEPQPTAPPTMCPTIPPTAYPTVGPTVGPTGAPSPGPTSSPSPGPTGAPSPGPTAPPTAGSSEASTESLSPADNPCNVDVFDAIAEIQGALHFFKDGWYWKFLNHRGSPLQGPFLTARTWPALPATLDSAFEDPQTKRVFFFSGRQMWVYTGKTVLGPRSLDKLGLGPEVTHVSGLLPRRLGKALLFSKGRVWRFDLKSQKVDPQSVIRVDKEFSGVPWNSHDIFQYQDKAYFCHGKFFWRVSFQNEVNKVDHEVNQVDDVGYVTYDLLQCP

mouse MMP9 [6] = target: T4, mouse MMP9; test: cell-based or functional assay

T1 sequence (P14780 20-707 Q279R/R574P limits assumed): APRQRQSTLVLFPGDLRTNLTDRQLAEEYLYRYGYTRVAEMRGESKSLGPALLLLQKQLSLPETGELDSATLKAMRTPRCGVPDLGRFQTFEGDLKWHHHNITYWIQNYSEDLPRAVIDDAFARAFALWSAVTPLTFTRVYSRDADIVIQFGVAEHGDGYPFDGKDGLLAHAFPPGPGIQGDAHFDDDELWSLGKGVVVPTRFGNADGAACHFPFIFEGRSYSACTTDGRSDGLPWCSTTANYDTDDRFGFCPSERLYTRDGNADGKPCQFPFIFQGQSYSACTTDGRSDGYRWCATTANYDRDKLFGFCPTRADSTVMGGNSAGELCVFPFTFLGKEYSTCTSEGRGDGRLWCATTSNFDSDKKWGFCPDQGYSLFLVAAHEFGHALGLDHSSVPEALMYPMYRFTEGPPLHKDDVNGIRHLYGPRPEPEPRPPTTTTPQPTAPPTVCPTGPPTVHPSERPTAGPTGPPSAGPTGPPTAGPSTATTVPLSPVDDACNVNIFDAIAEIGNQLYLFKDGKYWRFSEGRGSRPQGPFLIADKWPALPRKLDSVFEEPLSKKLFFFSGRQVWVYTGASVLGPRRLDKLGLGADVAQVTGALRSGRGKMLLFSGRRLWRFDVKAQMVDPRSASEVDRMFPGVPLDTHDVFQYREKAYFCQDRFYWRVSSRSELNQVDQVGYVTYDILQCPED

Row | Binder | Kd (human MMP9 [1]) [nM] | Kd (human MMP9 [2]) | Kd (cynomolgus monkey MMP9) [nM] | Kd (rat MMP9) [nM] | IC50, MMP9-mediated cleavage of fluorogenic peptide substrate Mca-PLGL-Dpa-AR-NH2 (human MMP9 [3]) [nM] | IC50, MMP9 enzyme assay under steady state (human MMP9 [3]) | Kd (human MMP9 [4]) [nM] | Kd (mouse MMP9 [5]) [nM] | IC50, MMP9-mediated cleavage of fluorogenic peptide substrate Mca-PLGL-Dpa-AR-NH2 (mouse MMP9 [6]) [nM]
1 | AB0045 (antibody, V domains shown, Humanized, modified human IgG4 (S241P) / kappa; also called AB0045; humanized variant anti-MMP9 antibody) VH: QVQLQESGPGLVKPSETLSLTCTVSGFSLLSYGVHWVRQPPGKGLEWLGVIWTGGTTNYNSALMSRFTISKDDSKNTVYLKMNSLKTEDTAIYYCARYYYGMDYWGQGTLVTVSS VL: DIQMTQSPSSLSASVGDRVTITCKASQDVRNTVAWYQQKPGKAPKLLIYSSSYRNTGVPDRFSGSGSGTDFTLTISSLQAEDVAVYYCQQHYITPYTFGGGTKVEIKR | 0.0088 | < 0.4 nM and 0.168 nM | < 0.4 | < 0.4 | 0.691 | 0.148 nM and 0.161 nM and 0.158 nM | ~0.001 | – | –
2 | AB0041 (antibody, V domains shown) VH: QVQLKESGPGLVAPSQSLSITCTVSGFSLLSYGVHWVRQPPGKGLEWLGVIWTGGTTNYNSALMSRLSISKDDSKSQVFLKMNSLQTDDTAIYYCARYYYGMDYWGQGTSVTVSS VL: DIVMTQSHKFMSTSVGDRVSITCKASQDVRNTVAWYQQKTGQSPKLLIYSSSYRNTGVPDRFTGSGSGTDFTFTISSVQAEDLAVYFCQQHYITPYTFGGGTKLEIKR | 0.0004 | – | < 0.4 | < 0.4 | 0.569 | – | – | – | –
3 | AB0046 (antibody, V domains shown, Mouse IgG1 / kappa; also called AB0046; anti-mouse MMP9 antibody) VH: QVQLQQPGSVLVRPGASVKLSCTASGYTFTSYWMNWVKQRPGQGLEWIGEIYPISGRTNYNEKFKVKATLTVDTSSSTAYMDLNSLTSEDSAVYYCARSRANWDDYWGQGTTLTVSS VL: DIQMTQTTSSLSASLGDRVTISCSASQGISNYLNWYQQKPDGTFKLLIYYTSILHSGVPSRFSGSGSGTDYSLTISNLEPEDIATYYCQQYGWLPRTFGGGTKLEIKR | – | – | – | – | – | – | – | 0.218 | 0.352
